# Experiments:
# [1] = biological target: standard human trypsin sample enclosed in the Kodazyme Trypsin M·EIA kit (human); assay: Kodazyme Trypsin M·EIA sandwich EIA, standard human trypsin 10 ng/ml, duplicate
# [2] = biological target: canine anionic trypsin (canine (dog)); assay: Kodazyme Trypsin M·EIA sandwich EIA, canine anionic trypsin 400 ng/ml
# [3] = biological target: canine cationic trypsin (canine (dog)); assay: Kodazyme Trypsin M·EIA sandwich EIA, canine cationic trypsin 6.25 ng/ml
# [4] = biological target: canine cationic trypsin (canine (dog)); assay: Kodazyme Trypsin M·EIA sandwich EIA, canine cationic trypsin 100 ng/ml
# [5] = biological target: canine anionic trypsin (canine (dog)); assay: Kodazyme Trypsin M·EIA sandwich EIA, canine anionic trypsin 400 ng/ml, duplicate
# [6] = biological target: standard human trypsin sample enclosed in the Kodazyme Trypsin M·EIA kit (human); assay: Kodazyme Trypsin M·EIA sandwich EIA, standard human trypsin 200 ng/ml, duplicate
# [7] = biological target: canine anionic trypsin (canine (dog)); assay: Kodazyme Trypsin M·EIA sandwich EIA, canine anionic trypsin 50 ng/ml
# [8] = biological target: standard human trypsin sample enclosed in the Kodazyme Trypsin M·EIA kit (human); assay: Kodazyme Trypsin M·EIA sandwich EIA, standard human trypsin 10 ng/ml
# [9] = biological target: standard human trypsin sample enclosed in the Kodazyme Trypsin M·EIA kit (human); assay: Kodazyme Trypsin M·EIA sandwich EIA, standard human trypsin 400 ng/ml, duplicate
# [10] = biological target: standard human trypsin sample enclosed in the Kodazyme Trypsin M·EIA kit (human); assay: Kodazyme Trypsin M·EIA sandwich EIA, standard human trypsin 400 ng/ml
# [11] = biological target: standard human trypsin sample enclosed in the Kodazyme Trypsin M·EIA kit (human); assay: Kodazyme Trypsin M·EIA sandwich EIA, standard human trypsin 50 ng/ml, duplicate
# [12] = biological target: standard human trypsin sample enclosed in the Kodazyme Trypsin M·EIA kit (human); assay: Kodazyme Trypsin M·EIA sandwich EIA, standard human trypsin 600 ng/ml
# [13] = biological target: canine cationic trypsin (canine (dog)); assay: Kodazyme Trypsin M·EIA sandwich EIA, canine cationic trypsin 200 ng/ml
# [14] = biological target: canine cationic trypsin (canine (dog)); assay: Kodazyme Trypsin M·EIA sandwich EIA, canine cationic trypsin 200 ng/ml, duplicate
# [15] = biological target: canine cationic trypsin (canine (dog)); assay: Kodazyme Trypsin M·EIA sandwich EIA, canine cationic trypsin 12.5 ng/ml
# [16] = biological target: canine anionic trypsin (canine (dog)); assay: Kodazyme Trypsin M·EIA sandwich EIA, canine anionic trypsin 6.25 ng/ml
# [17] = biological target: canine cationic trypsin (canine (dog)); assay: Kodazyme Trypsin M·EIA sandwich EIA, canine cationic trypsin 12.5 ng/ml, duplicate
# [18] = biological target: canine anionic trypsin (canine (dog)); assay: Kodazyme Trypsin M·EIA sandwich EIA, canine anionic trypsin 12.5 ng/ml, duplicate
# [19] = biological target: standard human trypsin sample enclosed in the Kodazyme Trypsin M·EIA kit (human); assay: Kodazyme Trypsin M·EIA sandwich EIA, standard human trypsin 100 ng/ml
# [20] = biological target: standard human trypsin sample enclosed in the Kodazyme Trypsin M·EIA kit (human); assay: Kodazyme Trypsin M·EIA sandwich EIA, standard human trypsin 200 ng/ml
# [21] = biological target: canine cationic trypsin (canine (dog)); assay: Kodazyme Trypsin M·EIA sandwich EIA, canine cationic trypsin 400 ng/ml
# [22] = biological target: standard human trypsin sample enclosed in the Kodazyme Trypsin M·EIA kit (human); assay: Kodazyme Trypsin M·EIA sandwich EIA, standard human trypsin 50 ng/ml
# [23] = biological target: canine anionic trypsin (canine (dog)); assay: Kodazyme Trypsin M·EIA sandwich EIA, canine anionic trypsin 6.25 ng/ml, duplicate
# [24] = biological target: canine anionic trypsin (canine (dog)); assay: Kodazyme Trypsin M·EIA sandwich EIA, canine anionic trypsin 50 ng/ml, duplicate
# [25] = biological target: canine cationic trypsin (canine (dog)); assay: Kodazyme Trypsin M·EIA sandwich EIA, canine cationic trypsin 50 ng/ml, duplicate
# [26] = biological target: canine cationic trypsin (canine (dog)); assay: Kodazyme Trypsin M·EIA sandwich EIA, canine cationic trypsin 25 ng/ml, duplicate
# [27] = biological target: canine cationic trypsin (canine (dog)); assay: Kodazyme Trypsin M·EIA sandwich EIA, canine cationic trypsin 25 ng/ml
# [28] = biological target: canine anionic trypsin (canine (dog)); assay: Kodazyme Trypsin M·EIA sandwich EIA, canine anionic trypsin 25 ng/ml, duplicate
# [29] = biological target: canine anionic trypsin (canine (dog)); assay: Kodazyme Trypsin M·EIA sandwich EIA, canine anionic trypsin 12.5 ng/ml
# [30] = biological target: canine anionic trypsin (canine (dog)); assay: Kodazyme Trypsin M·EIA sandwich EIA, canine anionic trypsin 100 ng/ml
# [31] = biological target: canine cationic trypsin (canine (dog)); assay: Kodazyme Trypsin M·EIA sandwich EIA, canine cationic trypsin 6.25 ng/ml, duplicate
# [32] = biological target: canine cationic trypsin (canine (dog)); assay: Kodazyme Trypsin M·EIA sandwich EIA, canine cationic trypsin 400 ng/ml, duplicate
# [33] = biological target: canine cationic trypsin (canine (dog)); assay: Kodazyme Trypsin M·EIA sandwich EIA, canine cationic trypsin 50 ng/ml
# [34] = biological target: canine anionic trypsin (canine (dog)); assay: Kodazyme Trypsin M·EIA sandwich EIA, canine anionic trypsin 200 ng/ml
# [35] = biological target: canine anionic trypsin (canine (dog)); assay: Kodazyme Trypsin M·EIA sandwich EIA, canine anionic trypsin 200 ng/ml, duplicate
# [36] = biological target: canine cationic trypsin (canine (dog)); assay: Kodazyme Trypsin M·EIA sandwich EIA, canine cationic trypsin 100 ng/ml, duplicate
# [37] = biological target: canine anionic trypsin (canine (dog)); assay: Kodazyme Trypsin M·EIA sandwich EIA, canine anionic trypsin 100 ng/ml, duplicate
# [38] = biological target: canine anionic trypsin (canine (dog)); assay: Kodazyme Trypsin M·EIA sandwich EIA, canine anionic trypsin 25 ng/ml
substance,measurement,setting,value
human trypsin MAb of Kodazyme Trypsin M·EIA (antibody),A492,[1],0.131
same,A492,[2],0.032
same,A492,[3],0.048
same,A492,[4],0.029
same,A492,[5],0.038
same,A492,[6],0.697
same,A492,[7],0.021
same,A492,[8],0.065
same,A492,[9],0.953
same,A492,[10],1.15
same,A492,[11],0.202
same,A492,[12],1.58
same,A492,[13],0.017
same,A492,[14],0.015
same,A492,[15],0.021
same,A492,[16],0.023
same,A492,[17],0.019
same,A492,[18],0.024
same,A492,[19],0.399
same,A492,[20],0.538
same,A492,[21],0.021
same,A492,[22],0.224
same,A492,[23],0.023
same,A492,[24],0.02
same,A492,[25],0.017
same,A492,[26],0.018
same,A492,[27],0.023
same,A492,[28],0.021
same,A492,[29],0.02
same,A492,[30],0.02
same,A492,[31],0.019
same,A492,[32],0.019
same,A492,[33],0.017
same,A492,[34],0.023
same,A492,[35],0.019
same,A492,[36],0.019
same,A492,[37],0.022
same,A492,[38],0.023
